Source: article PMC10638403, “A closed translocation channel in the substrate-free AAA+ ClpXP protease diminishes rogue degradation” (Nature Communications, 2023)

B1: full-length E. coli ClpX (enzyme)
chain: not shown
notes: ClpX, E. coli, full length, with a neutral K408E mutation; The methods tell two purifications for full-length ClpX (Ni-NTA, gel filtration and ion exchange; or ammonium sulfate, phenyl-Sepharose and mono-Q), so the His6 tag on this form is not certain; The N-terminal domains were not visible in the map; models typically hold residues 65-413; also called wild-type ClpX; ClpX6; source: E. coli …
B2: E. coli ClpP (enzyme)
chain: not shown
notes: ClpP peptidase, E. coli; models hold residues 2-193 of each subunit; also called ClpP14; double-ring ClpP tetradecamer; source: E. coli HMS174(DE3), pT7 plasmid, purified (Ni-NTA, size-exclusion chromatography); copies: 14

Legend:
[1] = target: the molecule itself; assay: cryo-EM structure; ClpX6 (5.8 µM), ClpP14 (1.9 µM), λO-Arc (20 µM dimer), ATPγS (2.5 mM) in 25 mM HEPES (pH 7.5), 100 mM KCl, 25 mM MgCl2; ClpX and ClpP incubated with ATPγS for 5 min at room temperature before λO-Arc was added; the substrate-free class was refined
[2] = target: B1; assay: as above; conditions: both partners purified
[3] = target: the molecule itself; assay: cryo-EM structure; single-chain ClpX^∆N (3 µM pseudohexamer) and ClpP (1.5 µM tetradecamer) in 20 mM HEPES (pH 7.5), 100 mM KCl, 25 mM MgCl2, incubated with ATP (5 mM) for 15 min at room temperature; doubly capped and singly capped particles

Binder	stoichiometry N [1] [subunits]	binding result [2]	stoichiometry N [3] [subunits]
B1	6	–	–
B2	–	binds	14
